Tested on: small intestinal organoids
Experiment: Ex vivo organoid culture of small intestine crypts
Format: cell-based, mouse
Procedure: Isolation of intestinal epithelial crypts was performed as previously described (26). Briefly, after harvesting small intestines, the organs were opened longitudinally and washed. Small intestine was incubated in 10 mM ethylenediamine-tetraacetatic acid (EDTA) for 25 min (4° C.) to dissociate the crypts. The supernatant containing crypts was collected.
250 crypts per well were suspended in growth factor reduced Matrigel (Corning) (33% ENR-medium; 66% growth factor reduced Matrigel) at 4° C. Then, they were plated in delta-surface Nunc 24-well plates in 30 μL drops, each containing approximately 250 crypts. […]
To determine the effect of 3pRNA/interferon stimulatory DNA/rmIFN-β on organoid size and morphology, bright-field microscopy images were taken using a Zeiss Axiovision Observer microscope with a 5× objective lens after 5 or 7 days in culture. 2D area and perimeter were analyzed using border perimeter tracing of organoids found in four representative fields of each well using Image J software. For assessment of gene expression by quantitative (q) PCR, organoids were subjected to RNA extraction 24 hours after culture using Trizol reagent (Invitrogen) according to manufacturer's protocol. Isolated RNA was reverse-transcribed using the Quantitect Reverse Transcription Kit (Qiagen). […]

B1: recombinant IFN-β: recombinant murine (rm) IFN-β (20 U/ml; PBL (12400-1)) (protein, UniProt P01575 22-182, looked up)
Interferon beta: INYKQLQLQERTNIRKCQELLEQLNGKINLTYRADFKIPMEMTEKMQKSYTAFAIQEMLQNVFLVFRNNFSSTGWNETIVVRLLDELHQQTVFLKTVLEEKQEERLTWEMSSTALHLKSYYWRVQRYLKLMKYNSYAWMVVRAEIFRNFLIIRRLTRNFQN
B1 was tested, and the number of organoids (7 days in culture, IFN-β 20 U/ml or α-IFNaR1 Ab 10 ug/ml) was “Neither recombinant IFN-β nor IFNAR blockade could influence” and the organoid size (recombinant murine IFN-β 20 U/ml, 5 or 7 days in culture) was “increased organoid size”.

Source: US20200108091A1, “GUT-PROTECTIVE EFFECT OF RIG-1/MAVS AND STING ACTIVATION” (MEMORIAL SLOAN-KETTERING CANCER CENTER, priority 2017, published 2020)
